The values below come from article PMC10042821 (2023).

First the molecules themselves.
B1: eukaryotic translation factor 5A-1 (eIF5A-1), residues 15-151 [human] / deoxyhypusine synthase, wild type, His-tagged [human] (parent complex)
chain 1: not shown
chain 2: MEGSLEREAPAGALAAVLKHSSTLPPESTQVRGYDFNRGVNYRALLEAFGTTGFQATNFGRAVQQVNAMIEKKLEPLSQDEDQHADLTQSRRPLTSCTIFLGYTSNLISSGIRETIRYLVQHNMVDVLVTTAGGVEEDLIKCLAPTYLGEFSLRGKELRENGINRIGNLLVPNENYCKFEDWLMPILDQMVMEQNTEGVKWTPSKMIARLGKEINNPESVYYWAQKNHIPVFSPALTDGSLGDMIFFHSYKNPGLVLDIVEDLRLINTQAIFAKCTGMIILGGGVVKHHIANANLMRNGADYAVYINTAQEFDGSDSGARPDEAVSWGKIRVDAQPVKVYADASLVFPLLVAETFAQKMDAFMHEKNED

The variants in one assay derive from B1. Put plainly: MST; read off a plot.
On to chain 2 F272A, for which the EC50 is about 400 nM.
Consider chain 2 S240A, for which the EC50 is about 2000 nM.
Same read-out and setting: with chain 2 Q83A the figure was about 7000 nM.
In the case of chain 2 Y250A, the EC50 was about 45000 nM.
Same read-out and setting: with chain 2 I271A the figure was about 50 nM.
For the variant chain 2 L295A, the EC50 was about 300 nM.
Still for that read-out and setting: with chain 2 Y176A the figure was about 700 nM.
Consider chain 2 N173A, for which the EC50 was about 13000 nM.
Consider chain 2 M244A, for which the concentration for a half-maximal effect (EC50) is about 12000 nM.

The next assay covers variants of B1. Put plainly: MST; read off a plot. This is another data set of the same source.
chain 2 D243A: the EC50 was about 500 nM.
With chain 2 H288A, the EC50 was about 50 nM.
Still for that read-out and setting: the value for chain 2 W327A was about 600 nM.
Still for that read-out and setting: the value for chain 2 K329A was about 130 nM; that for chain 2 E137A was about 45 nM.

Variants of B1 are the subject of the next assay. Put plainly: MST; highest eIF5A concentration of the titration, est. 6e-5 M; read off a plot.
Consider chain 2 F247A, for which the response is about 0.33 fraction bound.

One may read the EC50 as the concentration that produces a half-maximal response.
